Results from IntAct's records for PubMed 29892012.

B1: TBC1 domain family member 22B (Homo sapiens), Q9NU19 (parent)
chain: MAAENSKQFWKRSAKLPGSIQPVYGAQHPPLDPRLTKNFIKERSKVNTVPLKNKKASSFHEFARNTSDAWDIGDDEEEDFSSPSFQTLNSKVALATAAQVLENHSKLRVKPERSQSTTSDVPANYKVIKSSSDAQLSRNSSDTCLRNPLHKQQSLPLRPIIPLVARISDQNASGAPPMTVREKTRLEKFRQLLSSQNTDLDELRKCSWPGVPREVRPITWRLLSGYLPANTERRKLTLQRKREEYFGFIEQYYDSRNEEHHQDTYRQIHIDIPRTNPLIPLFQQPLVQEIFERILFIWAIRHPASGYVQGINDLVTPFFVVFLSEYVEEDVENFDVTNLSQDMLRSIEADSFWCMSKLLDGIQDNYTFAQPGIQKKVKALEELVSRIDEQVHNHFRRYEVEYLQFAFRWMNNLLMRELPLRCTIRLWDTYQSEPEGFSHFHLYVCAAFLIKWRKEILDEEDFQGLLMLLQNLPTIHWGNEEIGLLLAEAYRLKYMFADAPNHYRR
partner: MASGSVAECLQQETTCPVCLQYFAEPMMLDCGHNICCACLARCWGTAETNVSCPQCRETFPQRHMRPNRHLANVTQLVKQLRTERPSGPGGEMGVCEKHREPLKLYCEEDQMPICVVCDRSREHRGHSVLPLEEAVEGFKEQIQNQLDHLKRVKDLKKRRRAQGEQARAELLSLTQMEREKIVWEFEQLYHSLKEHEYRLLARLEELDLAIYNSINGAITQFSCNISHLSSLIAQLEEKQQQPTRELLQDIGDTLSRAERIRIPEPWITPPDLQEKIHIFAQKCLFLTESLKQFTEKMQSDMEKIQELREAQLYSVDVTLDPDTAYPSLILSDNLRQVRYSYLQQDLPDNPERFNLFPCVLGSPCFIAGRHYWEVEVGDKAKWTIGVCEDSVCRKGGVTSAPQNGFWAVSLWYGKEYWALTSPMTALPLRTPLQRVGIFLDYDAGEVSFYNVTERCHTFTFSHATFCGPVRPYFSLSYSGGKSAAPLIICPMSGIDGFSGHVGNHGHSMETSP
B2: Multifunctional procollagen lysine hydroxylase and glycosyltransferase LH3 (Homo sapiens), O60568 (parent)
chain: MTSSGPGPRFLLLLPLLLPPAASASDRPRGRDPVNPEKLLVITVATAETEGYLRFLRSAEFFNYTVRTLGLGEEWRGGDVARTVGGGQKVRWLKKEMEKYADREDMIIMFVDSYDVILAGSPTELLKKFVQSGSRLLFSAESFCWPEWGLAEQYPEVGTGKRFLNSGGFIGFATTIHQIVRQWKYKDDDDDQLFYTRLYLDPGLREKLSLNLDHKSRIFQNLNGALDEVVLKFDRNRVRIRNVAYDTLPIVVHGNGPTKLQLNYLGNYVPNGWTPEGGCGFCNQDRRTLPGGQPPPRVFLAVFVEQPTPFLPRFLQRLLLLDYPPDRVTLFLHNNEVFHEPHIADSWPQLQDHFSAVKLVGPEEALSPGEARDMAMDLCRQDPECEFYFSLDADAVLTNLQTLRILIEENRKVIAPMLSRHGKLWSNFWGALSPDEYYARSEDYVELVQRKRVGVWNVPYISQAYVIRGDTLRMELPQRDVFSGSDTDPDMAFCKSFRDKGIFLHLSNQHEFGRLLATSRYDTEHLHPDLWQIFDNPVDWKEQYIHENYSRALEGEGIVEQPCPDVYWFPLLSEQMCDELVAEMEHYGQWSGGRHEDSRLAGGYENVPTVDIHMKQVGYEDQWLQLLRTYVGPMTESLFPGYHTKARAVMNFVVRYRPDEQPSLRPHHDSSTFTLNVALNHKGLDYEGGGCRFLRYDCVISSPRKGWALLHPGRLTHYHEGLPTTWGTRYIMVSFVDP
partner: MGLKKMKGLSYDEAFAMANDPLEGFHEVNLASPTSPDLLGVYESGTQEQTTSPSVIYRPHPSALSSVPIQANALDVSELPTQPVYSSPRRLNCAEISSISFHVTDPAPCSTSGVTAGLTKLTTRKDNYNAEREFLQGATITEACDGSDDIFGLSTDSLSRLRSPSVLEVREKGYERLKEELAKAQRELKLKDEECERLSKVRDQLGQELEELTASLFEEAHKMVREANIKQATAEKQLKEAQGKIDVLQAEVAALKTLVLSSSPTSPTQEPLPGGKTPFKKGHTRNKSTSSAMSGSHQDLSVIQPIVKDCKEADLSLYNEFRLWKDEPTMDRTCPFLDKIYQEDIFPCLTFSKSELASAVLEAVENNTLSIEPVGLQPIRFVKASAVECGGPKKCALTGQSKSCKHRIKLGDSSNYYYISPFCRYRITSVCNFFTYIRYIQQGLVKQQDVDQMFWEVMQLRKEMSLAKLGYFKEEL
B3: Chaperone Ric-8A (Homo sapiens), Q9NPQ8 (parent)
chain: MEPRAVAEAVETGEEDVIMEALRSYNQEHSQSFTFDDAQQEDRKRLAELLVSVLEQGLPPSHRVIWLQSVRILSRDRNCLDPFTSRQSLQALACYADISVSEGSVPESADMDVVLESLKCLCNLVLSSPVAQMLAAEARLVVKLTERVGLYRERSFPHDVQFFDLRLLFLLTALRTDVRQQLFQELKGVRLLTDTLELTLGVTPEGNPPPTLLPSQETERAMEILKVLFNITLDSIKGEVDEEDAALYRHLGTLLRHCVMIATAGDRTEEFHGHAVNLLGNLPLKCLDVLLTLEPHGDSTEFMGVNMDVIRALLIFLEKRLHKTHRLKESVAPVLSVLTECARMHRPARKFLKAQVLPPLRDVRTRPEVGEMLRNKLVRLMTHLDTDVKRVAAEFLFVLCSESVPRFIKYTGYGNAAGLLAARGLMAGGRPEGQYSEDEDTDTDEYKEAKASINPVTGRVEEKPPNPMEGMTEEQKEHEAMKLVTMFDKLSRNRVIQPMGMSPRGHLTSLQDAMCETMEQQLSSDPDSDPD
partner: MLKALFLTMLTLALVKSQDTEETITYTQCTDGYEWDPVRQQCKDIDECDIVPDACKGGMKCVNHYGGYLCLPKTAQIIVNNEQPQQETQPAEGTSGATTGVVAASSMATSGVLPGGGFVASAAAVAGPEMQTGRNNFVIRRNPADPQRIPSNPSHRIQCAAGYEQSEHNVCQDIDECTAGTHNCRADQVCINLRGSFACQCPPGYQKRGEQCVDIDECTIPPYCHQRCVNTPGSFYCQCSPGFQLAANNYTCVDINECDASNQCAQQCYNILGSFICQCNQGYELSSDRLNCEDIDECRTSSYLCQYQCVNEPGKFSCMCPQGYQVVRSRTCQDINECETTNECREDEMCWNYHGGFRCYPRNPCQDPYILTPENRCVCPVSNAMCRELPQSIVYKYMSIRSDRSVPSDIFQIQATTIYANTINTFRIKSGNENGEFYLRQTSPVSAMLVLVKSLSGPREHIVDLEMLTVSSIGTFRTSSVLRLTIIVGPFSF
B4: Atos homolog protein B (Homo sapiens), Q7L5A3 (parent)
chain: MRHVQAEPSPSSEPEAGPSQPPVRQGALQGGLLMGYSPAGGATSPGVYQVSIFSPPAGTSEPHRALKRQAPSTEGPRELKRGPGLGAREGLPPEEPSTVGLLGPEGPGLGLGVASQHFSHRGLCVVEQRSSVTSSWTSGAWSPPCPPSNASCNTLHTRDWASPDPGGQGSLGESPGPAPPGQLHTLDTDLHSLAQIGGKSPVAGVGNGGSLWPRESPGTANGHSPEHTPPGPGPPGPCPTKRRLLPAGEAPDVSSEEEGPAPRRRRGSLGHPTAANSSDAKATPFWSHLLPGPKEPVLDPTDCGPMGRRLKGARRLKLSPLRSLRKGPGLLSPPSASPVPTPAVSRTLLGNFEESLLRGRFAPSGHIEGFTAEIGASGSYCPQHVTLPVTVTFFDVSEQNAPAPFLGIVDLNPLGRKGYSVPKVGTVQVTLFNPNQTVVKMFLVTFDFSDMPAAHMTFLRHRLFLVPVGEEGNANPTHRLLCYLLHLRFRSSRSGRLSLHGDIRLLFSRRSLELDTGLPYELQAVTEAPHNPRYSPLP
B5: Coiled-coil alpha-helical rod protein 1 (Homo sapiens), Q8TD31 (parent)
chain: MFPPSGSTGLIPPSHFQARPLSTLPRMAPTWLSDIPLVQPPGHQDVSERRLDTQRPQVTMWERDVSSDRQEPGRRGRSWGLEGSQALSQQAEVIVRQLQELRRLEEEVRLLRETSLQQKMRLEAQAMELEALARAEKAGRAEAEGLRAALAGAEVVRKNLEEGSQRELEEVQRLHQEQLSSLTQAHEEALSSLTSKAEGLEKSLSSLETRRAGEAKELAEAQREAELLRKQLSKTQEDLEAQVTLVENLRKYVGEQVPSEVHSQTWELERQKLLETMQHLQEDRDSLHATAELLQVRVQSLTHILALQEEELTRKVQPSDSLEPEFTRKCQSLLNRWREKVFALMVQLKAQELEHSDSVKQLKGQVASLQEKVTSQSQEQAILQRSLQDKAAEVEVERMGAKGLQLELSRAQEARRRWQQQTASAEEQLRLVVNAVSSSQIWLETTMAKVEGAAAQLPSLNNRLSYAVRKVHTIRGLIARKLALAQLRQESCPLPPPVTDVSLELQQLREERNRLDAELQLSARLIQQEVGRAREQGEAERQQLSKVAQQLEQELQQTQESLASLGLQLEVARQGQQESTEEAASLRQELTQQQELYGQALQEKVAEVETRLREQLSDTERRLNEARREHAKAVVSLRQIQRRAAQEKERSQELRRLQEEARKEEGQRLARRLQELERDKNLMLATLQQEGLLSRYKQQRLLTVLPSLLDKKKSVVSSPRPPECSASAPVAAAVPTRESIKGSLSVLLDDLQDLSEAISKEEAVCQGDNLDRCSSSNPQMSS
partner: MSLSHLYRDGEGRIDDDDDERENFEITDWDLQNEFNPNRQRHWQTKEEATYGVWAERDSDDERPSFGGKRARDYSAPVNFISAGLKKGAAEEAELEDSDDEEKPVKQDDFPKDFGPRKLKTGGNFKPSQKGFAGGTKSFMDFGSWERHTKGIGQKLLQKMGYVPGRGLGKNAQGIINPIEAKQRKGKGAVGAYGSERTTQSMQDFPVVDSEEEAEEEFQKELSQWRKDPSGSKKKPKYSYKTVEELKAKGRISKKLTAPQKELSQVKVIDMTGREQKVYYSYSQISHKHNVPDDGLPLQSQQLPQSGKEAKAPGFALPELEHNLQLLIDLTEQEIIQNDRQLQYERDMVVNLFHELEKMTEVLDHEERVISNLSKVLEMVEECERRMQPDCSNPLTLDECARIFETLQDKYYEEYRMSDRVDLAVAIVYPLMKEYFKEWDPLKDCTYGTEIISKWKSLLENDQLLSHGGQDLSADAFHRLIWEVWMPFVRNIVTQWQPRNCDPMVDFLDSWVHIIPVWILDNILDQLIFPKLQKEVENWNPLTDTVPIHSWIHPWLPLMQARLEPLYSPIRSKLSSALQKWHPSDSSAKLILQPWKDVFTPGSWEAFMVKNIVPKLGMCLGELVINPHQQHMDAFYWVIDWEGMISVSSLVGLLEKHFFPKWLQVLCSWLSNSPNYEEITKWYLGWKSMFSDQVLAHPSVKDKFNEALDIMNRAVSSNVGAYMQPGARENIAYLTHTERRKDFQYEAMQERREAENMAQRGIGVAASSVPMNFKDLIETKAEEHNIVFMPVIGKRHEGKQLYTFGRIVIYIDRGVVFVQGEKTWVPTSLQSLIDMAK
B6: Atos homolog protein B (Homo sapiens), Q7L5A3 (parent)
chain: B4 chain
partner: B1 partner
B7: TBC1 domain family member 22B (Homo sapiens), Q9NU19 (parent)
chain: B1 chain
partner: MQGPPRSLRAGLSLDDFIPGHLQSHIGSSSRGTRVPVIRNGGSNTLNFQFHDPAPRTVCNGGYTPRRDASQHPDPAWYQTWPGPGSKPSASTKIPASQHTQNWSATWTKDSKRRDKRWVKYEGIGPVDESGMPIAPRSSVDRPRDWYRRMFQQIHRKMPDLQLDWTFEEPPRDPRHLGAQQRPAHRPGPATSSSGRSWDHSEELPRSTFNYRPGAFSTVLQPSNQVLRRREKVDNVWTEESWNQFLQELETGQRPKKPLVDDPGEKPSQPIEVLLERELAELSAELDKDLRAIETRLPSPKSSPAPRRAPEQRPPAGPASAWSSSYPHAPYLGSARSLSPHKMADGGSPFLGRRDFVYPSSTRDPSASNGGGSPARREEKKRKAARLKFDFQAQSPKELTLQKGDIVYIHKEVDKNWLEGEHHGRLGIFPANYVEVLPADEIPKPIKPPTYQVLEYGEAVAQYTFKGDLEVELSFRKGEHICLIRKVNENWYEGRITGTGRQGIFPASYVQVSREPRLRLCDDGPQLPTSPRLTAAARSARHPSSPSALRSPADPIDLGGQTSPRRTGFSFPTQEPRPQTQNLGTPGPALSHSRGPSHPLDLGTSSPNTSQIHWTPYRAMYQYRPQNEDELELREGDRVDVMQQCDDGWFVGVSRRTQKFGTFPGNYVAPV

Variants of: B1
Conditions: with tri27_human TRIM27, P14373

| Variant | effect of a mutation on the interaction |
| --- | --- |
| A349T | disrupting interaction strength |

Variants of: B2
Conditions: with rab3i_human RAB3IP

| Variant | effect of a mutation on the interaction |
| --- | --- |
| R235Q | with no effect |

Variants of: B3
Conditions: with fbln3_human EFEMP1, Q12805

| Variant | effect of a mutation on the interaction |
| --- | --- |
| K319E | with no effect |

Variants of: B4
Conditions: with mdfi_human MDFI

| Variant | effect of a mutation on the interaction |
| --- | --- |
| C381Y | with no effect |

Variants of: B4
Conditions: with ikzf1_human IKZF1, Q13422
Chain of ikzf1_human IKZF1, Q13422 (Q13422 whole entry): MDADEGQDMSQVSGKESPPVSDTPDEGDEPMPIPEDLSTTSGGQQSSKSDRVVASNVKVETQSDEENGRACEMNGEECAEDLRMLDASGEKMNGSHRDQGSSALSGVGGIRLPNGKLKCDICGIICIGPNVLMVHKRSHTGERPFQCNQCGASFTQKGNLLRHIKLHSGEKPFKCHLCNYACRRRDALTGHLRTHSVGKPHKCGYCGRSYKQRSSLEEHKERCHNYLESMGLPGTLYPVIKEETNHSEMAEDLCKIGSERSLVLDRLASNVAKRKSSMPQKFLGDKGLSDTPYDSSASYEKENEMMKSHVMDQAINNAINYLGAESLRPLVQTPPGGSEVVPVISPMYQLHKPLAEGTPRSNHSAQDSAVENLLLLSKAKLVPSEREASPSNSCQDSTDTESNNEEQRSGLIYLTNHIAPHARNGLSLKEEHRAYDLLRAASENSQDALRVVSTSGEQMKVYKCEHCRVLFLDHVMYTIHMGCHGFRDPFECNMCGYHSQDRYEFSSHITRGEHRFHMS

| Variant | effect of a mutation on the interaction |
| --- | --- |
| C381Y | disrupting interaction strength |

Variants of: B4
Conditions: with dnja3_human DNAJA3, Q96EY1
Chain of dnja3_human DNAJA3, Q96EY1 (Q96EY1 whole entry): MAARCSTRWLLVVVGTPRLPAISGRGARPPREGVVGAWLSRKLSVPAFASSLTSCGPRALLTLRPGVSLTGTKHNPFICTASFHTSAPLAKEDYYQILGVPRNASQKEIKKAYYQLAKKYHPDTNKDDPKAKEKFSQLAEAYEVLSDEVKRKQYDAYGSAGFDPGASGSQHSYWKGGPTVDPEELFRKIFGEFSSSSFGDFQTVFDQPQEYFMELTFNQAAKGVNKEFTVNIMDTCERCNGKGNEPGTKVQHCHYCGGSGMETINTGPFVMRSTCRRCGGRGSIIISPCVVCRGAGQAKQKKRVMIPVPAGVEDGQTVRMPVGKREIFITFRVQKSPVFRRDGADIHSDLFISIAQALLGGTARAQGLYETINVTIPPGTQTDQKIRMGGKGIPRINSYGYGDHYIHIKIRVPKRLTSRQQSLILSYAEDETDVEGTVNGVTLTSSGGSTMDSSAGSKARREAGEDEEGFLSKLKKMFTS

| Variant | effect of a mutation on the interaction |
| --- | --- |
| C381Y | disrupting interaction strength |

Variants of: B5
Conditions: with tfp11_human TFIP11, Q9UBB9

| Variant | effect of a mutation on the interaction |
| --- | --- |
| W337R | with no effect |

Variants of: B6
Conditions: with tri27_human TRIM27, P14373

| Variant | effect of a mutation on the interaction |
| --- | --- |
| C381Y | disrupting interaction strength |

Variants of: B7
Conditions: with vinex_human SORBS3, O60504

| Variant | effect of a mutation on the interaction |
| --- | --- |
| A349T | disrupting interaction strength |
